How the values were obtained:
[1] = biological target: T1, hnRNPA1 RNA-binding domain (human, UniProt P09651 1-196); assay: UV photo-cross-linking
[2] = biological target: T1, hnRNPA1 RNA-binding domain; assay: EMSA

T1 sequence (P09651 1-196): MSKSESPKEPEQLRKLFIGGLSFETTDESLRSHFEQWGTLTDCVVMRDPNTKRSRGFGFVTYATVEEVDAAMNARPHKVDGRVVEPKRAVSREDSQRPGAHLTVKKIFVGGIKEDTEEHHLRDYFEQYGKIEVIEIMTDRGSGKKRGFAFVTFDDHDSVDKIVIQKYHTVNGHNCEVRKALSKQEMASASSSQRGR

UUAGGGUUAGGG (structured_RNA, 5-bromouridine at position 8 (printed UUAGGGU(BrU)-AGGG)) [BrU 12-mer telomere RNA]
binding result [1]: binds

UUAGGGUUAGGGUUAGGGUUAGGG (structured_RNA) [24-mer telomere RNA]
Kd [2]: 37.6 nM

From article PMC5977995
